Experiments:
[1] = target: RSV fusion (F) protein on RSV virus (respiratory syncytial virus, UniProt P03420 26-574); assay: cell-based or functional assay
VLP098 = assay: ELISA, VLP-coated wells, 0.5 µg/ml palivizumab, OD relative to sF-coated wells
VLP097 = assay: as above
VLP099 = assay: as above
VLP019 = assay: as above
VLP059 = assay: as above

B1: palivizumab (antibody, V domains shown)
VH: QVTLRESGPALVKPTQTLTLTCTFSGFSLSTSGMSVGWIRQPPGKALEWLADIWWDDKKDYNPSLKSRLTISKDTSKNQVVLKVTNMDPADTATYYCARSMITNWYFDVWGAGTTVTVSS
VL: DIQMTQSPSTLSASVGDRVTITCKCQLSVGYMHWYQQKPGKAPKLLIYDTSKLASGVPSRFSGSGSGTEFTLTISSLQPDDFATYYCFQGSGYPFTFGGGTKLEIK
PRNT as measured by the IC50 point [1]: ~0.5 mg/L | Palivizumab binding in vitro (sF = 100%) (VLP098): 47% | Palivizumab binding in vitro (sF = 100%) (VLP097): 112% | Palivizumab binding in vitro (sF = 100%) (VLP099): 95% | Palivizumab binding in vitro (sF = 100%) (VLP019): 100% | Palivizumab binding in vitro (sF = 100%) (VLP059): 83%
